The values below are quoted from earlier work in PMC11277083, “A Natural Bioactive Peptide from Pinctada fucata Pearls Can Be Used as a Potential Inhibitor of the Interaction between SARS-CoV-2 and ACE2 against COVID-19” (International Journal of Molecular Sciences, 2024).

The series deals with SARS-CoV-2 pseudoparticle. Particulars: pretreatment; blocking the interaction between ACE2 and the RBD.

B1: human defensin 5 (HD5): human defensin 5 (peptide, UniProt Q01523 20-94, looked up)
Defensin alpha 5: ESLQERADEATTQKQSGEDNQDLAISFAGNGLSALRTSGSQARATCYCRTGRCATRESLSGVCEISGRLYRLCCR
modifications: Defensin-5
On to B1, for which the “effect on SARS-CoV-2 pseudoparticle infection” value was “could reduce SARS-CoV-2 pseudoparticle infection”.
